Target: the molecule itself
Test: SEC

B1: Gloeobacter violaceus ligand-gated ion channel (GLIC), wild type, pentameric assembly (natural protein, UniProt Q7NDN8 44-359, looked up)
chain: QDMVSPPPPIADEPLTVNTGIYLIECYSLDDKAETFKVNAFLSLSWKDRRLAFDPVRSGVRVKTYEPEAIWIPEIRFVNVENARDADVVDISVSPDGTVQYLERFSARVLSPLDFRRYPFDSQTLHIYLIVRSVDTRNIVLAVDLEKVGKNDDVFLTGWDIESFTAVVKPANFALEDRLESKLDYQLRISRQYFSYIPNIILPMLFILFISWTAFWSTSYEANVTLVVSTLIAHIAFNILVETNLPKTPYMTYTGAIIFMIYLFYFVAVIEVTVQHYLKVESQPARAASITRASRIAFPVVFLLANIILAFLFFGF
stoichiometry N: 5
